US20040018971A1 (published 2004)

B1: HER2/neu peptide, position 706, 9 amino acids (peptide)
peptide: MPNQAQMRI
notes: T0001 prints N at residue 706; also called Her2/neu.706
B2: HER2/neu peptide, position 706, 10 amino acids (peptide)
peptide: MPNQAQMRIL
notes: as for B1
B3: HER2/neu peptide, position 701, 10 amino acids (peptide)
peptide: TPSGAMPNQA
notes: T0001 prints N at residue 706; also called Her2/neu.701

target: T1, HLA-B*0702 (human); assay: inhibition of 125I standard peptide binding to purified HLA
T1 construct: also called B7 supertype prototype molecule

Compared with MPNPEGRYTF (also called Her2/neu.282) [HER2/neu peptide, position 282, 10 amino acids], B1 is higher in relative binding ratio: 0.0001 ratio to standard peptide for the first, 0.009 ratio to standard peptide for the second.

First: B2
Second: MPYGCLLDHV (also called Her2/neu.801) [HER2/neu peptide, position 801, 10 amino acids]
The relative binding ratio of the first is higher: 0.049 ratio to standard peptide for the first, 0.0085 ratio to standard peptide for the second.

First: NPEGRYTF (also called Her2/neu.284) [HER2/neu peptide, position 284, 8 amino acids]
Second: NPEGRYTFGA (also called Her2/neu.284) [HER2/neu peptide, position 284, 10 amino acids]
The relative binding ratio of the first is lower: -0.0002 ratio to standard peptide for the first, 0.0001 ratio to standard peptide for the second.

Compared with NPEYLGLDV (also called Her2/neu.1245) [HER2/neu peptide, position 1245, 9 amino acids], NPEYLGLDVPV (also called Her2/neu.1245) [HER2/neu peptide, position 1245, 11 amino acids] is lower in relative binding ratio: 0.0001 ratio to standard peptide for the first, -0.0002 ratio to standard peptide for the second.

First: NPEYLTPQGGA (also called Her2/neu.1193) [HER2/neu peptide, position 1193, 11 amino acids]
Second: NPHQALLHTA (also called Her2/neu.488) [HER2/neu peptide, position 488, 10 amino acids]
The relative binding ratio of the first is lower: -0.0003 ratio to standard peptide for the first, 0.0005 ratio to standard peptide for the second.

First: NPQLCYQDTI (also called Her2/neu.158) [HER2/neu peptide, position 158, 10 amino acids]
Second: NPQLCYQDTIL (also called Her2/neu.158) [HER2/neu peptide, position 158, 11 amino acids]
The relative binding ratio of the first is higher: 0.0001 ratio to standard peptide for the first, -0.0002 ratio to standard peptide for the second.

PPAFSPAF (also called Her2/neu.1210) [HER2/neu peptide, position 1210, 8 amino acids] and PPAFSPAFDNL (also called Her2/neu.1210) [HER2/neu peptide, position 1210, 11 amino acids] are the same in relative binding ratio: -0.0002 ratio to standard peptide for the first, -0.0002 ratio to standard peptide for the second.

First: PPERGAPPSTF (also called Her2/neu.1227) [HER2/neu peptide, position 1227, 11 amino acids]
Second: PPGAASTQV (also called Her2/neu.17) [HER2/neu peptide, position 17, 9 amino acids]
The relative binding ratio of the first is lower: -0.0003 ratio to standard peptide for the first, 0.0001 ratio to standard peptide for the second.

First: PPICTIDV (also called Her2/neu.944) [HER2/neu peptide, position 944, 8 amino acids]
Second: PPICTIDVY (also called Her2/neu.944) [HER2/neu peptide, position 944, 9 amino acids]
The relative binding ratio of the first is lower: -0.0006 ratio to standard peptide for the first, 0.0001 ratio to standard peptide for the second.

Compared with PPICTIDVYM (also called Her2/neu.944) [HER2/neu peptide, position 944, 10 amino acids], PPICTIDVYMI (also called Her2/neu.944) [HER2/neu peptide, position 944, 11 amino acids] is higher in relative binding ratio: 0.0004 ratio to standard peptide for the first, 0.0064 ratio to standard peptide for the second.

First: PPPAFSPA (also called Her2/neu.1209) [HER2/neu peptide, position 1209, 8 amino acids]
Second: PPPAFSPAF (also called Her2/neu.1209) [HER2/neu peptide, position 1209, 9 amino acids]
The relative binding ratio of the first is lower: -0.0002 ratio to standard peptide for the first, 0.0002 ratio to standard peptide for the second.

First: PPSPREGPL (also called Her2/neu.1149) [HER2/neu peptide, position 1149, 9 amino acids]
Second: PPSTFKGTPTA (also called Her2/neu.1233) [HER2/neu peptide, position 1233, 11 amino acids]
The relative binding ratio of the first is higher: 0.0054 ratio to standard peptide for the first, -0.0003 ratio to standard peptide for the second.

QPEQLQVF (also called Her2/neu.393) [HER2/neu peptide, position 393, 8 amino acids] and QPEQLQVFETL (also called Her2/neu.393) [HER2/neu peptide, position 393, 11 amino acids] are the same in relative binding ratio: -0.0002 ratio to standard peptide for the first, -0.0002 ratio to standard peptide for the second.

Compared with QPEYVNQPDV (also called Her2/neu.1136) [HER2/neu peptide, position 1136, 10 amino acids], QPHPPPAF (also called Her2/neu.1206) [HER2/neu peptide, position 1206, 8 amino acids] is higher in relative binding ratio: 0.0001 ratio to standard peptide for the first, 0.0002 ratio to standard peptide for the second.

Compared with QPHPPPAFSPA (also called Her2/neu.1206) [HER2/neu peptide, position 1206, 11 amino acids], QPPICTIDV (also called Her2/neu.943) [HER2/neu peptide, position 943, 9 amino acids] is lower in relative binding ratio: 0.0003 ratio to standard peptide for the first, 0.0001 ratio to standard peptide for the second.

Compared with QPPICTIDVY (also called Her2/neu.943) [HER2/neu peptide, position 943, 10 amino acids], QPPICTIDVYM (also called Her2/neu.943) [HER2/neu peptide, position 943, 11 amino acids] is higher in relative binding ratio: 0.0001 ratio to standard peptide for the first, 0.002 ratio to standard peptide for the second.

Compared with QPPSPREGPL (also called Her2/neu.1148) [HER2/neu peptide, position 1148, 10 amino acids], QPQNGSVTCF (also called Her2/neu.568) [HER2/neu peptide, position 568, 10 amino acids] is lower in relative binding ratio: 0.0014 ratio to standard peptide for the first, 0.0004 ratio to standard peptide for the second.

Compared with RPEDECVGEGL (also called Her2/neu.499) [HER2/neu peptide, position 499, 11 amino acids], RPRFRELV (also called Her2/neu.966) [HER2/neu peptide, position 966, 8 amino acids] is higher in relative binding ratio: -0.0002 ratio to standard peptide for the first, 0.041 ratio to standard peptide for the second.

First: RPRFRELVSEF (also called Her2/neu.966) [HER2/neu peptide, position 966, 11 amino acids]
Second: SPAFDNLY (also called Her2/neu.1214) [HER2/neu peptide, position 1214, 8 amino acids]
The relative binding ratio of the first is higher: 1.3 ratio to standard peptide for the first, -0.0002 ratio to standard peptide for the second.

SPAFDNLYY (also called Her2/neu.1214) [HER2/neu peptide, position 1214, 9 amino acids] and SPAFDNLYYW (also called Her2/neu.1214) [HER2/neu peptide, position 1214, 10 amino acids] are the same in relative binding ratio: 0.0001 ratio to standard peptide for the first, 0.0001 ratio to standard peptide for the second.

First: SPETHLDM (also called Her2/neu.38) [HER2/neu peptide, position 38, 8 amino acids]
Second: SPETHLDML (also called Her2/neu.38) [HER2/neu peptide, position 38, 9 amino acids]
The relative binding ratio of the first is higher: 0.0014 ratio to standard peptide for the first, 0.0005 ratio to standard peptide for the second.

Compared with SPGGLREL (also called Her2/neu.133) [HER2/neu peptide, position 133, 8 amino acids], SPGGLRELQL (also called Her2/neu.133) [HER2/neu peptide, position 133, 10 amino acids] is higher in relative binding ratio: 0.055 ratio to standard peptide for the first, 0.058 ratio to standard peptide for the second.

First: SPGKNGVV (also called Her2/neu.1174) [HER2/neu peptide, position 1174, 8 amino acids]
Second: SPGKNGVVKDV (also called Her2/neu.1174) [HER2/neu peptide, position 1174, 11 amino acids]
The relative binding ratio of the first is higher: 0.023 ratio to standard peptide for the first, -0.0002 ratio to standard peptide for the second.

Compared with SPKANKEI (also called Her2/neu.760) [HER2/neu peptide, position 760, 8 amino acids], SPKANKEIL (also called Her2/neu.760) [HER2/neu peptide, position 760, 9 amino acids] is higher in relative binding ratio: 0.058 ratio to standard peptide for the first, 0.12 ratio to standard peptide for the second.

Compared with SPLAPSEGA (also called Her2/neu.1073) [HER2/neu peptide, position 1073, 9 amino acids], SPLDSTFY (also called Her2/neu.998) [HER2/neu peptide, position 998, 8 amino acids] is lower in relative binding ratio: 0.003 ratio to standard peptide for the first, -0.0006 ratio to standard peptide for the second.

First: SPLDSTFYRSL (also called Her2/neu.998) [HER2/neu peptide, position 998, 11 amino acids]
Second: SPLTSIISA (also called Her2/neu.649) [HER2/neu peptide, position 649, 9 amino acids]
The relative binding ratio of the first is higher: 0.064 ratio to standard peptide for the first, 0.015 ratio to standard peptide for the second.

First: SPLTSIISAV (also called Her2/neu.649) [HER2/neu peptide, position 649, 10 amino acids]
Second: SPLTSIISAVV (also called Her2/neu.649) [HER2/neu peptide, position 649, 11 amino acids]
The relative binding ratio of the first is higher: 0.09 ratio to standard peptide for the first, 0.025 ratio to standard peptide for the second.

Compared with SPMCKGSRCW (also called Her2/neu.196) [HER2/neu peptide, position 196, 10 amino acids], SPNHVKITDF (also called Her2/neu.855) [HER2/neu peptide, position 855, 10 amino acids] is lower in relative binding ratio: 0.0021 ratio to standard peptide for the first, 0.0016 ratio to standard peptide for the second.

First: SPREGPLPA (also called Her2/neu.1151) [HER2/neu peptide, position 1151, 9 amino acids]
Second: SPREGPLPAA (also called Her2/neu.1151) [HER2/neu peptide, position 1151, 10 amino acids]
The relative binding ratio of the first is higher: 0.64 ratio to standard peptide for the first, 0.46 ratio to standard peptide for the second.

Compared with SPYVSRLL (also called Her2/neu.779) [HER2/neu peptide, position 779, 8 amino acids], SPYVSRLLGI (also called Her2/neu.779) [HER2/neu peptide, position 779, 10 amino acids] is higher in relative binding ratio: 0.044 ratio to standard peptide for the first, 0.1 ratio to standard peptide for the second.

Compared with B3, TPTAENPEYL (also called Her2/neu.1240) [HER2/neu peptide, position 1240, 10 amino acids] is higher in relative binding ratio: 0.0001 ratio to standard peptide for the first, 0.0002 ratio to standard peptide for the second.

First: TPVTGASPGGL (also called Her2/neu.127) [HER2/neu peptide, position 127, 11 amino acids]
Second: VPIKWMAL (also called Her2/neu.884) [HER2/neu peptide, position 884, 8 amino acids]
The relative binding ratio of the first is lower: -0.0002 ratio to standard peptide for the first, 1.4 ratio to standard peptide for the second.

Compared with VPIKWMALESI (also called Her2/neu.884) [HER2/neu peptide, position 884, 11 amino acids], VPLPSETDGY (also called Her2/neu.1118) [HER2/neu peptide, position 1118, 10 amino acids] is lower in relative binding ratio: 0.0017 ratio to standard peptide for the first, 0.0001 ratio to standard peptide for the second.

Compared with VPLPSETDGYV (also called Her2/neu.1118) [HER2/neu peptide, position 1118, 11 amino acids], VPLQRLRI (also called Her2/neu.94) [HER2/neu peptide, position 94, 8 amino acids] is higher in relative binding ratio: -0.0002 ratio to standard peptide for the first, 0.002 ratio to standard peptide for the second.

First: VPLQRLRIV (also called Her2/neu.94) [HER2/neu peptide, position 94, 9 amino acids]
Second: WPDSLPDL (also called Her2/neu.415) [HER2/neu peptide, position 415, 8 amino acids]
The relative binding ratio of the first is lower: 0.0077 ratio to standard peptide for the first, 0.02 ratio to standard peptide for the second.

WPDSLPDLSV (also called Her2/neu.415) [HER2/neu peptide, position 415, 10 amino acids] was tested, and the relative binding ratio was 0.0044 ratio to standard peptide.

target: HLA-B*0702 (human); assay: competition with 125I-labelled probe peptide for purified HLA, gel filtration

Going from APGAGGMV [HER2/neu peptide, position 1036, 8 amino acids] to APLQPEQL [HER2/neu peptide, position 390, 8 amino acids], the relative binding ratio falls from 0.0063 ratio (IC50 of standard / IC50 of test peptide) to < 0.0006 ratio (IC50 of standard / IC50 of test peptide).

In the case of APLQPEQLQV [HER2/neu peptide, position 390, 10 amino acids], the relative binding ratio is reported as 0.0001 ratio (IC50 of standard / IC50 of test peptide).
